This passage reports IC50, EC50 and Kd results from patent publication US20230032643A1 (GlaxoSmithKline, published 2023).

For orientation: IC50 means the point on the concentration scale where inhibition reaches its midpoint. Low values mean greater potency in that assay, high ones weaker potency in that assay. By EC50 is commonly meant the concentration giving half of the maximal effect. A higher EC50 goes with weaker potency. One may read the Kd as a measure of binding affinity in units of concentration.

In test [1] the target is T1, human CR2 on primary human cells (B cells in PBMCs; tonsil follicular dendritic cells) (human, UniProt P20023 21-1033).
T1 construct: Endogenous CR2 on primary human CD20+ B cells or tonsil FDCs; also called CD21
T1 sequence: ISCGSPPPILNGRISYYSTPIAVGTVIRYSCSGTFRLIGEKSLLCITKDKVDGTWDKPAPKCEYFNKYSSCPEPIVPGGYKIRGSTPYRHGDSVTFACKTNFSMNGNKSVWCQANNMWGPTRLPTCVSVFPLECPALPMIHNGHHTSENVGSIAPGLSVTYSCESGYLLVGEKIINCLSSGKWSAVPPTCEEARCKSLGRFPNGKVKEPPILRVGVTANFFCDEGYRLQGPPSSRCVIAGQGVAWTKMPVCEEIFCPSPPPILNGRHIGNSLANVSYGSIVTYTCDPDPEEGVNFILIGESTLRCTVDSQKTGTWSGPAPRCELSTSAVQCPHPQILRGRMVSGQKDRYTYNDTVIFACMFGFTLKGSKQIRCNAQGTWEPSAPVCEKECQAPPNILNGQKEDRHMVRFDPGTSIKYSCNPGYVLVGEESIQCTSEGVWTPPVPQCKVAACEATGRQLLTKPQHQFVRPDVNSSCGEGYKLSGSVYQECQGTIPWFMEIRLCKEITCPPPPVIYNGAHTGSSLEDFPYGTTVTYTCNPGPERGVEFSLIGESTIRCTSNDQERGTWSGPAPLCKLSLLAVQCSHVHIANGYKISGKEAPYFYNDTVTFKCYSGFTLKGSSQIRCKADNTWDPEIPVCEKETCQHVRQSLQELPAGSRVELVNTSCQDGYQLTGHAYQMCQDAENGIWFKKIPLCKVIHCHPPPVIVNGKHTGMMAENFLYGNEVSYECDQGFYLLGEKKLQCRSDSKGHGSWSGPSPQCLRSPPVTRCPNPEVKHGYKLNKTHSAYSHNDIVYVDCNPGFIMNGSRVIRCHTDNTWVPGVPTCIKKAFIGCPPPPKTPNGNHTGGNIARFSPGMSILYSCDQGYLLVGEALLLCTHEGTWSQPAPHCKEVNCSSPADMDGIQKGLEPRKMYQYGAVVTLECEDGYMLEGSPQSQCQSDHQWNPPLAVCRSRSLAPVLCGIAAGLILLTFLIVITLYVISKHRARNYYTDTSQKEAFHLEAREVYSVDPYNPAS
As to the kind of experiment: flow cytometry; inhibition of serum-opsonised PnPS14 binding to CD20+ B cells in human PBMCs, mAb pre-incubated. For orientation: In flow cytometry, cells or beads pass a laser one at a time.

Test [2] has as its target T1, human CR2 on primary human cells (B …). As to the kind of experiment: flow cytometry on primary human tonsil FDCs; unlabelled mAb 1053 titrated, then saturating mAb 1053-PE (1 ug/ml).
The target of test [3] is T2, recombinant soluble human CR2 (human, UniProt P20023 21-971, limits assumed).
T2 construct: it includes the transmembrane and cytoplasmic parts, which a soluble form would lack; also called human CR2 antigen
T2 sequence: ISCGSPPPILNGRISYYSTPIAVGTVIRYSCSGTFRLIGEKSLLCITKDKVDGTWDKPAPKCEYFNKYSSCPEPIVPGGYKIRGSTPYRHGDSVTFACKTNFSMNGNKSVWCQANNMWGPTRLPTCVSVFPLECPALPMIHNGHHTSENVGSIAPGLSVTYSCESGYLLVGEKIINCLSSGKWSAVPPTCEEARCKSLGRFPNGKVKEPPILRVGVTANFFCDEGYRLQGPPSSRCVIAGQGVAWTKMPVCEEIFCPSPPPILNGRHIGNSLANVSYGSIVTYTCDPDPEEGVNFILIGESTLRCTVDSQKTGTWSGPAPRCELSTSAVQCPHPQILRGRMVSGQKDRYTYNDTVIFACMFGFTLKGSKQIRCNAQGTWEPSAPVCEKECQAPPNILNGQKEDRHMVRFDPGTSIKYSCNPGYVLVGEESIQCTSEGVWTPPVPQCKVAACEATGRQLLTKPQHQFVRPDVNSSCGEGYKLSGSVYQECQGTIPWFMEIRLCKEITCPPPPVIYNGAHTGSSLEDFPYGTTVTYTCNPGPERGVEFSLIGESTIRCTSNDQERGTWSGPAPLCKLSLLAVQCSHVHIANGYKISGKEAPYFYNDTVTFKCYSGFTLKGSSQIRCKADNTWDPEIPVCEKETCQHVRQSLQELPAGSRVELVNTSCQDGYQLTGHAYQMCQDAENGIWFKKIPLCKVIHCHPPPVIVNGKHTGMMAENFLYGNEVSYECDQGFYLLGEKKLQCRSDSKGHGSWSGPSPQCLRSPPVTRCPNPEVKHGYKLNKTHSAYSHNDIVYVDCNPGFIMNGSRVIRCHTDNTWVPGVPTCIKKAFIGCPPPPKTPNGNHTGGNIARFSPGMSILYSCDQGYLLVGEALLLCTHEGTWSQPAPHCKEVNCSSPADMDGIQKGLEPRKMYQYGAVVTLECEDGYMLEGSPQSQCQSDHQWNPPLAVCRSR
Nature of the test: SPR (BIACORE T200), HEK-expressed antibody captured on Protein A, soluble CR2 as analyte, 25 C, equilibrium model. On the technique in general: In SPR one partner is held on a chip, and binding of the other changes the refractive index at the surface.

The target in test [4] is T3, recombinant soluble cynomolgus macaque CR2 (cynomolgus macaque, UniProt A0A2K5URG6 21-972).
T3 construct: also called Cyno CR2; cyno CR2 antigen
T3 sequence: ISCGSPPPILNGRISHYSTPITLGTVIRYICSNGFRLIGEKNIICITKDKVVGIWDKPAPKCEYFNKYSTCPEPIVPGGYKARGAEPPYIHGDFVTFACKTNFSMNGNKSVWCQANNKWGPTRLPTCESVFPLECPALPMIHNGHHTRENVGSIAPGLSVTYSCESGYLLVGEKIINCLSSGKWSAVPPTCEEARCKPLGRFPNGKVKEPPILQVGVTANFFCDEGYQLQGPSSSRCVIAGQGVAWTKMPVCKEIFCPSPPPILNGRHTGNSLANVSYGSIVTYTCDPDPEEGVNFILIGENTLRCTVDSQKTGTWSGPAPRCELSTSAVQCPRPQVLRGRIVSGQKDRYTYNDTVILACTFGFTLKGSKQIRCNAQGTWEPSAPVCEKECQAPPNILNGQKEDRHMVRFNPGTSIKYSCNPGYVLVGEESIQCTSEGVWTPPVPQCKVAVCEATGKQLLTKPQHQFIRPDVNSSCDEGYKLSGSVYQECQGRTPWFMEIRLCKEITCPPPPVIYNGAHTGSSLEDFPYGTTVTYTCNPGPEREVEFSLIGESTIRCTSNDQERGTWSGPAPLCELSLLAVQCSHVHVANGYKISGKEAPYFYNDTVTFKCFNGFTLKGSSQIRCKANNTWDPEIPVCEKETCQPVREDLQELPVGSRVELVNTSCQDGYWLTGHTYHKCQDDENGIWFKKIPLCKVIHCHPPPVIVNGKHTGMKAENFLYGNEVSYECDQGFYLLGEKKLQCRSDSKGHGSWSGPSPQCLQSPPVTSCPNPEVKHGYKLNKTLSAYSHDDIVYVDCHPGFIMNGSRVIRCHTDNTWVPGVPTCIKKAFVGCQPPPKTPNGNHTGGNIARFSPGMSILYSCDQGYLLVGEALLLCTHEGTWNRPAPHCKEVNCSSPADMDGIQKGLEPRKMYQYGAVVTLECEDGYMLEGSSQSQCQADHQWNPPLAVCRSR
Described as above.

The target in test [5] is T1, human CR2 on primary human cells (B …). Nature of the test: flow cytometry; inhibition of C3dg:Streptavidin-APC complex binding to CD20+ B cells in human PBMCs, mAb pre-incubated.
For test [6] the target is unchanged. As to the kind of experiment: flow cytometry; inhibition of C3dg:streptavidin-APC ligand complex binding to primary human tonsil FDCs, mAb pre-incubated.

B1: mAb 1053 (antibody, human IgG1, kappa, V domains shown)
VH: QLQLQESGPGLVKPSETLSLTCTVSGGSISSDSYYWGWIRQPPGKGLEWIGSIHYSGSTYYNPPLESRVTISVDTSKNQFSLKLSSVTAADTAVYYCAREGGPRHGWSWGQGTLVTVSS
VL: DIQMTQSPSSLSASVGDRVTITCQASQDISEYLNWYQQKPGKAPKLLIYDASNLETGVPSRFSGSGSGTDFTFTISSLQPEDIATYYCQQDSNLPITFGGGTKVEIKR
notes: CHO-expressed unless stated otherwise
B1: the IC50 worked out at 37.9 pM in test [1], 11.9 pM in test [5] and 47 pM in test [6]. Further, in test [2], the response was half-maximal at 62.2 pM (EC50). The Kd is 257 pM in test [3] and 287 pM in test [4].
